Data reported in US8785185B2, “Differentiation of human embryonic stem cells” (Janssen Biotech, Inc., priority 2009, dated 2014).

Assays:
Format in all cases: cell-based
[1] = system: human embryonic stem cell line H1; experiment: Real-time PCR of pancreatic markers at stage 3 day 4, Treatments 1-3 (Table 1); settings: normalized to treatment 1, stage 3 treatment for four days
Protocol: (§1) RPMI medium (Catalogue #22400, Invitrogen, Ca) supplemented with 2% BSA (Catalog #152401, MP Biomedical, Ohio), and 100 ng/ml activin A (R&D Systems, MN) plus 20 ng/ml WNT-3a (Catalog #1324-WN-002, R&D Systems, MN) plus 8 ng/ml of bFGF (Catalog #100-18B, PeproTech, NJ), for one day followed by treatment with RPMI media supplemented with 2% BSA and 100 ng/ml activin A plus 8 ng/ml of bFGF for an additional two days (Stage 1), then • b. DMEM/F12 (Catalogue #11330, Invitrogen, Ca)+2% BSA+50 ng/ml FGF7 for three days (Stage 2), then • c. Either Treatment 1: DMEM (high glucose)+1% B27 (Invitrogen, CA)+50 ng/ml FGF7, 0.25 μM Cyclopamine-KAAD, 2 μM retinoic acid (RA) and 100 ng/ml of Noggin for four days, or • d. Treatment 2: DMEM (high glucose)+1% B27 (Invitrogen, CA)+50 ng/ml FGF7, 0.25 μM Cyclopamine-KAAD, 2 μM retinoic acid (RA), 100 ng/ml of Noggin, 20 ng/ml activin A, for four days, or • e. Treatment 3: DMEM (high glucose)+1% B27 (Invitrogen, CA)+50 ng/ml FGF7, 0.25 μM Cyclopamine-KAAD, 2 μM retinoic acid (RA), 100 ng/ml of Noggin, 1 μM ALK5 inhibitor II, for four days.
(§2) Cultures were sampled in duplicate on stage 3 day 4, and analyzed for expression of pancreatic markers using real-time PCR. Cultures also were fixed in parallel for immunofluorescence analysis.

[2] = system: human embryonic stem cell line H1; experiment: Immunofluorescence analysis of marker expression at stage 3 day 4 (FIG. 2, FIG. 3)
Protocol: as §1, §2
Treatment 1 (FGF7, retinoic acid and Noggin) induced the expression of NKX6.1 and NGN3.
This is in contrast with PDX1 expressing cells generated by using DMEM/F12 supplemented with 1% B27 (Invitrogen, CA)+50 ng/ml FGF7, 0.25 μM Cyclopamine-KAAD, 2 μM retinoic acid (RA), 100 ng/ml of Noggin, 20 ng/ml activin A, wherein most PDX1 expressing cells also expressed CDX2.

[3] = system: human embryonic stem cell line H1; experiment: Real-time PCR of pancreatic markers at stage 3 day 4, activin A 20 or 50 ng/ml added at stage 3 (FIG. 1); settings: 20 or 50 ng/ml activin A with FGF7, cyclopamine-KAAD, retinoic acid, Noggin
Protocol: Briefly, cells of the human embryonic stem cell line H1 were cultured on MATRIGEL™ (1:30 dilution) coated dishes and RPMI medium supplemented with 2% BSA, 100 ng/ml activin A, 20 ng/ml WNT-3a, 8 ng/ml of bFGF for one day, followed by treatment with RPMI media supplemented with 2% BSA, 100 ng/ml activin A, 8 ng/ml of bFGF for an additional two days (Stage 1), then • a. DMEM/F12+2% BSA+50 ng/ml FGF7+0.25 μM Cyclopamine-KAAD for three days (Stage 2), then • b. DMEM-High glucose+1% B27+50 ng/ml FGF7+0.25 μM Cyclopamine-KAAD+2 μM Retinoic acid (RA)+100 ng/ml of Noggin+20 ng/ml activin A or 50 ng/ml activin A for four days (Stage 3).
As a control, separate populations of cells were treated with DMEM High glucose, supplemented with 1% B27, 50 ng/ml FGF7, 0.25 μM Cyclopamine-KAAD, 2 μM retinoic acid (RA), and 100 ng/ml of Noggin.
Cultures were sampled in duplicate on stage 3 day 4, and analyzed for expression of pancreatic markers using real-time PCR.
A down-regulation of NGN3 expression was also observed in the cells at stage 3 day 4.

Molecule | relative expression level of NKX6.1 [1] | relative expression level of PDX1 [1] | expression of NGN3 / number of NGN3 expressing cells [2] | NGN3 expression [3] | NKX6.1 expression ([3]; real-time PCR, versus cells receiving no activin A) | expression of NKX6.1 / number of NKX6.1 expressing cells [2]
Cc1cccc(-c2[nH]ncc2-c2ccc3ncccc3n2)n1 [ALK5 inhibitor II] | decrease | No significant impact | significantly increased | – | – | –
activin A (protein, UniProt P08476 311-426, looked up, Inhibin beta A chain, a member of the TGF-β superfamily (R&D Systems)) Inhibin beta A chain: GLECDGKVNICCKKQFFVSFKDIGWNDWIIAPSGYHANYCEGECPSHIAGTSGSSLSFHSTVINHYRMRGHSPFANLKSCCVPTKLRPMSMLYYDDGQNIIKKDIQNMIVEECGCS | – | – | blocked | down-regulation | increase | significantly increased
